Reference: the nanobody polyreactivity screen of Harvey et al. (2022)

Assay: yeast display, Sf9 membrane polyspecificity reagent, FACS + sequencing; frameworks hold sequencing errors
In short: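 Nanobodies from a synthetic yeast display library (Saccharomyces cerevisiae BJ5465), induced 36–48 hours with galactose, were stained 1 hour at 4 °C with 10% biotinylated, detergent-solubilized Sf9 membrane reagent, enriched on streptavidin microbeads, then FACS-sorted. Anti-HA (expression) and streptavidin (reagent binding) fluorescence set low and high (top ~1%) gates. Polyreactivity labels come from the gate of origin. Genes were colony-PCR amplified, MiSeq 2 × 250 sequenced and filtered by CDR length.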

| Sequence | polyreactivity (PSR sort gate) |
| --- | --- |
| QVQLVESGGGLVQAGGSLRLSCAASGRTFYDNAMGWYRQAPGKERELVAVISRSGSTYYADSVKGRFTISRDNAKNTVYLQMNSLKPEDTAVYYCARRGVWGVTYSRLYHWGQGTLVTVSS | high polyreactivity |
| QVQLVESGGGLVQAGGSLRLSCAASGRTFYDYTMGRYRQAPGKERELVAAISQRGGSTYYADSVKGRFTISRDNAKNTVYLQMNSLKPEDTAVYYCAARTSYSGNKYYYWGQGTQVTVSS | high polyreactivity |
| QVQLVESGGGLVQAGGSLRLSCAASGRTFYDYTMGWYRQAPGKERELVAVISKRGGSTYYADSVKGRFTISRDNAKNTVYLQMNSLKPEDTAVYYCAAKSGRNVYQKVDYWGQGTQVTVSS | high polyreactivity |
| QVQLVESGGGLVQAGGSLRLSCAASGRTFYFNAMGWYRQAPGKERELVAAITFSGGSTNYADSVKGRFTISRDNAKNTVYLQMNSLKPEDTAVYYCAAPKYLGTDEYDYWGQGTQVTVSS | low polyreactivity |
| QVQLVESGGGLVQAGGSLRLSCAASGRTFYFYAMGWYRQAPGKERELVAAIDFSGDSTYYADSVKGRFTISRDNAKNTVYLQMNSLKPEDTAVYYCAAEIYIGEQPYDYWGQGTQVTVSS | low polyreactivity |
| QVQLVESGGGLVQAGGSLRLSCAASGRTFYFYAMGWYRQAPGKERELVADIRGITGSTYYADSVKGRFTISRDNAKNTVYLQMNSLKPEDTAVYYCAADQYLGRAWRGRGYYWGQGTQVTVSS | high polyreactivity |
| QVQLVESGGGLVQAGGSLRLSCAASGRTFYFYTMGWYRQAPGIERELVATIRWSAGSTYSADSVKGRFTISRDNAKNTVYLQMTSLKPEDTAVYYCNADPYVYSSWQYGYWGQGTQVTVSS | high polyreactivity |
| QVQLVESGGGLVQAGGSLRLSCAASGRTFYFYTMGWYRQAPGKERELVAAITSGGSTNYADSVKGRFTISRDNAKNTVYLQMNSLKPEDTAVYYCAAIYYRVYGYGLRMYYWGQGTQVTVSS | high polyreactivity |
| QVQLVESGGGLVQAGGSLRLSCAASGRTFYFYVMGWYRQAPGKERELVARISYSDGSTYYADSVKGRFTISRDNAKNTVYLQMNSLKPEDTAVYYCNAYDPYYGRRYDYWGQGTQVTVSS | low polyreactivity |
| QVQLVESGGGLVQAGGSLRLSCAASGRTFYGNAIAWYRQAPGKERELVAAINRGGNTNYADSVKGRFTISRDNAKNTVYLQMNSLKPEDTAVYYCAARPYYRYFEYWGQGTQVTVSS | high polyreactivity |
| QVQLVESGGGLVQAGGSLRLSCAASGRTFYGNAMGWYRQAPGKERELVASITRRGGITYYADSVKGRFTISRDNAKNTVYLQMNSLKPEDTAVYYCAKAQLGPWSFEYWGQGTQVTVSS | high polyreactivity |
| QVQLVESGGGLVQAGGSLRLSCAASGRTFYGNAMGWYRQAPGNERELVAAITTGGGNTYYADSVKGRFTISRDNAKNTVYLQMNSLKPDDTAVYYCAAYERKFYTVSRWYKLDYWGQGTQVTVSS | high polyreactivity |
| QVQLVESGGGLVQAGGSLRLSCAASGRTFYGYAKGWYIQAPGKERELVAAITRAGSTNYADSVKGRFTISRDNAKNTFYLQLNSLKPEDTAVYYCAAVRVHTDRYNYWGQGTQVTVSS | high polyreactivity |
| QVQLVESGGGLVQAGGSLRLSCAASGRTFYGYAMAWYRQAPGKERELVAAISVSGGSPYYADSVKGRFTISRDNAKNTVYLQMNSQKPEDTAVYYCIAKYSYRRWYDFDYWGQGTQVTVSS | low polyreactivity |
| QVQLVESGGGLVQAGGSLRLSCAASGRTFYGYAMGWYRQAPGKERELVAAISFSGGRTYYADSVKGRFTISRDNAKNTVYLQMNSLKPEDTAVYYCNRGLYPFDWVQGTQVTVSS | high polyreactivity |
| QVQLVESGGGLVQAGGSLRLSCAASGRTFYGYAMGWYRQAPGKERELVAAISKRGGSTYYADSVKGRFTISRDNAKNTVYLQMNSLKPEDTAVYYCARPYLGPYSGYDYNYWGQGTQVTVSS | high polyreactivity |
| QVQLVESGGGLVQAGGSLRLSCAASGRTFYGYAMGWYRQAPGKERELVAAISKTGGSTYYADSVKGRFTISRDNAKNTVYLQMNSLKPEDTAVYYCNARRIYRLEYDSWGQGTQVTVSS | high polyreactivity |
